Measured values reported in article PMC2928003.
Several values for one entry are separate records, joined by “and”; a condition that tells them apart may be missing. Equal values may be shown once.

Columns and labels:
[1] = target: nonmuscle myosin IIA (mouse (endogenous in NIH3T3)) (UniProt Q8VDD5); test: co-IP
[2] = target: nonmuscle myosin IIB (mouse (endogenous in NIH3T3)) (UniProt Q61879); test: co-IP
[3] = target: nonmuscle myosin IIB (rat (endogenous in PC12 and rat brain)) (UniProt Q9JLT0); test: co-IP
[4] = target: the DH–PH domains; test: pull-down
[5] = target: Tiam1 DH–PH domain (aa 1048–1406), His-tagged (UniProt Q60610); test: SPR
[6] = target: Vav1 DH–PH domain (aa 195–508), His-tagged (UniProt P15498); test: SPR
[7] = target: βPIX DH–PH domain (aa 100–400), His-tagged (UniProt O55043); test: SPR
βPIX DH–PH domain (aa 100–400), His-tagged, sequence (O55043 100-400): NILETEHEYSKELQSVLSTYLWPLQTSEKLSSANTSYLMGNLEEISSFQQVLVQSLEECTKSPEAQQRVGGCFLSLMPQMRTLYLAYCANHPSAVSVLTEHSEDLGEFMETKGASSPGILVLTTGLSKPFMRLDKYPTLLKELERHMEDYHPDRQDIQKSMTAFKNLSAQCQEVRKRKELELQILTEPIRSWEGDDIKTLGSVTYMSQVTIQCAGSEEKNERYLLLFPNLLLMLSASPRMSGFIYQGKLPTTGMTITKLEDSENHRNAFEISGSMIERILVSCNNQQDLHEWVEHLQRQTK

nonmuscle myosin IIB (rat (endogenous in PC12 and rat brain)), sequence (Q9JLT0 whole entry, the tested form may be a part): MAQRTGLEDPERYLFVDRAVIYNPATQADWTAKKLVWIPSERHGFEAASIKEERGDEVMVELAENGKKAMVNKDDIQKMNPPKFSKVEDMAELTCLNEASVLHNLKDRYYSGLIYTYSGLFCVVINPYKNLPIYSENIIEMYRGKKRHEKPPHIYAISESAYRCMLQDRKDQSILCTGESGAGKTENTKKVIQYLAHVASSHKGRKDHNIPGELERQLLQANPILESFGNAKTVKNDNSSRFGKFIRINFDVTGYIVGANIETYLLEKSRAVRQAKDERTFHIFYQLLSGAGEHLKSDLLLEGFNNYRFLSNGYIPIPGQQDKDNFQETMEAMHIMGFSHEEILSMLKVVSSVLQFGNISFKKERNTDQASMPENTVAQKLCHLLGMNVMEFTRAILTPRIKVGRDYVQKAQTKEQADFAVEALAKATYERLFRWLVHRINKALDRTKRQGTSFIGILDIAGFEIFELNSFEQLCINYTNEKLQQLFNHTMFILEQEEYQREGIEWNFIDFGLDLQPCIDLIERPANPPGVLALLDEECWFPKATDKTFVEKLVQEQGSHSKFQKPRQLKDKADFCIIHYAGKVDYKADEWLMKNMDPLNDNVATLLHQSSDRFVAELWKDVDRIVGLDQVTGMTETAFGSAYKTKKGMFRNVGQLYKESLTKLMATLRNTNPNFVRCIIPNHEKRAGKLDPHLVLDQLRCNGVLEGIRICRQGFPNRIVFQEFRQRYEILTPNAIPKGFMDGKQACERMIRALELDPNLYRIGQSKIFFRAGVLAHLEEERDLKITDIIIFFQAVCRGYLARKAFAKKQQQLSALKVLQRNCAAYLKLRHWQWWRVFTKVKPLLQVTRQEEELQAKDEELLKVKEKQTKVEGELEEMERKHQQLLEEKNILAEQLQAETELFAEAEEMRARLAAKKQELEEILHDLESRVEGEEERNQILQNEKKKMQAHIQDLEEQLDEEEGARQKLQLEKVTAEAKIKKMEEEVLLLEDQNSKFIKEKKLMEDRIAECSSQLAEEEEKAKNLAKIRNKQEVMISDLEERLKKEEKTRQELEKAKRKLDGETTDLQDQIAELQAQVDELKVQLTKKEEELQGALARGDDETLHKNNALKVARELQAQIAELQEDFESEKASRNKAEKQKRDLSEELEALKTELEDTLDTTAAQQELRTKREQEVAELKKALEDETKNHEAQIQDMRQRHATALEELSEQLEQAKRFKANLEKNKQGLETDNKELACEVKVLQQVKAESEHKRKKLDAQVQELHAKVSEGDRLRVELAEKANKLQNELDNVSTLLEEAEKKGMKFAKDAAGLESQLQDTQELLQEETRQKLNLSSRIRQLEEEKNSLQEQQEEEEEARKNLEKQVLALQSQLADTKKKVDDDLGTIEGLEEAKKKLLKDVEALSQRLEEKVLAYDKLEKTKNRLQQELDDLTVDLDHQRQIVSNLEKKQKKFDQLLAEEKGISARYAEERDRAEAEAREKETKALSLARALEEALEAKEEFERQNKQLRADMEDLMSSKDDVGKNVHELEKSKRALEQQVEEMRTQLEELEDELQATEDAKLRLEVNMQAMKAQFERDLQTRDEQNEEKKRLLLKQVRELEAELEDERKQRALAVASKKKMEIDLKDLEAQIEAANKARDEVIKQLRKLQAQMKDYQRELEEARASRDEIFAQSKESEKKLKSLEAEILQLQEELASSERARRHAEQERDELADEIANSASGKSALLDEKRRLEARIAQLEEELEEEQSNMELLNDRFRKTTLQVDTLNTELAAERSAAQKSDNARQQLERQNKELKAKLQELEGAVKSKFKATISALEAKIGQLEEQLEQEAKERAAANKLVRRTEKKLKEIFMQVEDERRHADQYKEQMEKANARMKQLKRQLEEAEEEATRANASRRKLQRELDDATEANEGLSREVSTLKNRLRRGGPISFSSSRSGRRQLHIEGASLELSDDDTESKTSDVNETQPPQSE
nonmuscle myosin IIB (mouse (endogenous in NIH3T3)), sequence (Q61879 whole entry): as the sequence (Q9JLT0 whole entry, the tested form may be a part) above, with K150M, K170E, T452A, N652T, G933E, M1304I, G1389S, E1969D counted along it
Tiam1 DH–PH domain (aa 1048–1406), His-tagged, sequence (Q60610 1048-1406): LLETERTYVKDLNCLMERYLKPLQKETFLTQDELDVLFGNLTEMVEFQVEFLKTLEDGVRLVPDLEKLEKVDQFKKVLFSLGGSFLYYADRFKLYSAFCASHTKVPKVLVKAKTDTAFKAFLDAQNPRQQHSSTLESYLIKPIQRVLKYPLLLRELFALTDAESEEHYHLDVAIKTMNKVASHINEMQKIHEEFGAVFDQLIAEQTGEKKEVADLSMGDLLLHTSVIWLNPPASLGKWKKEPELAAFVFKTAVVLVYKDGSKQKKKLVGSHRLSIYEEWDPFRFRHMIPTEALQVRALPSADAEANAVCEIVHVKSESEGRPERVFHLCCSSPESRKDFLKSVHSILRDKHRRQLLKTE
nonmuscle myosin IIA (mouse (endogenous in NIH3T3)), sequence (Q8VDD5 whole entry): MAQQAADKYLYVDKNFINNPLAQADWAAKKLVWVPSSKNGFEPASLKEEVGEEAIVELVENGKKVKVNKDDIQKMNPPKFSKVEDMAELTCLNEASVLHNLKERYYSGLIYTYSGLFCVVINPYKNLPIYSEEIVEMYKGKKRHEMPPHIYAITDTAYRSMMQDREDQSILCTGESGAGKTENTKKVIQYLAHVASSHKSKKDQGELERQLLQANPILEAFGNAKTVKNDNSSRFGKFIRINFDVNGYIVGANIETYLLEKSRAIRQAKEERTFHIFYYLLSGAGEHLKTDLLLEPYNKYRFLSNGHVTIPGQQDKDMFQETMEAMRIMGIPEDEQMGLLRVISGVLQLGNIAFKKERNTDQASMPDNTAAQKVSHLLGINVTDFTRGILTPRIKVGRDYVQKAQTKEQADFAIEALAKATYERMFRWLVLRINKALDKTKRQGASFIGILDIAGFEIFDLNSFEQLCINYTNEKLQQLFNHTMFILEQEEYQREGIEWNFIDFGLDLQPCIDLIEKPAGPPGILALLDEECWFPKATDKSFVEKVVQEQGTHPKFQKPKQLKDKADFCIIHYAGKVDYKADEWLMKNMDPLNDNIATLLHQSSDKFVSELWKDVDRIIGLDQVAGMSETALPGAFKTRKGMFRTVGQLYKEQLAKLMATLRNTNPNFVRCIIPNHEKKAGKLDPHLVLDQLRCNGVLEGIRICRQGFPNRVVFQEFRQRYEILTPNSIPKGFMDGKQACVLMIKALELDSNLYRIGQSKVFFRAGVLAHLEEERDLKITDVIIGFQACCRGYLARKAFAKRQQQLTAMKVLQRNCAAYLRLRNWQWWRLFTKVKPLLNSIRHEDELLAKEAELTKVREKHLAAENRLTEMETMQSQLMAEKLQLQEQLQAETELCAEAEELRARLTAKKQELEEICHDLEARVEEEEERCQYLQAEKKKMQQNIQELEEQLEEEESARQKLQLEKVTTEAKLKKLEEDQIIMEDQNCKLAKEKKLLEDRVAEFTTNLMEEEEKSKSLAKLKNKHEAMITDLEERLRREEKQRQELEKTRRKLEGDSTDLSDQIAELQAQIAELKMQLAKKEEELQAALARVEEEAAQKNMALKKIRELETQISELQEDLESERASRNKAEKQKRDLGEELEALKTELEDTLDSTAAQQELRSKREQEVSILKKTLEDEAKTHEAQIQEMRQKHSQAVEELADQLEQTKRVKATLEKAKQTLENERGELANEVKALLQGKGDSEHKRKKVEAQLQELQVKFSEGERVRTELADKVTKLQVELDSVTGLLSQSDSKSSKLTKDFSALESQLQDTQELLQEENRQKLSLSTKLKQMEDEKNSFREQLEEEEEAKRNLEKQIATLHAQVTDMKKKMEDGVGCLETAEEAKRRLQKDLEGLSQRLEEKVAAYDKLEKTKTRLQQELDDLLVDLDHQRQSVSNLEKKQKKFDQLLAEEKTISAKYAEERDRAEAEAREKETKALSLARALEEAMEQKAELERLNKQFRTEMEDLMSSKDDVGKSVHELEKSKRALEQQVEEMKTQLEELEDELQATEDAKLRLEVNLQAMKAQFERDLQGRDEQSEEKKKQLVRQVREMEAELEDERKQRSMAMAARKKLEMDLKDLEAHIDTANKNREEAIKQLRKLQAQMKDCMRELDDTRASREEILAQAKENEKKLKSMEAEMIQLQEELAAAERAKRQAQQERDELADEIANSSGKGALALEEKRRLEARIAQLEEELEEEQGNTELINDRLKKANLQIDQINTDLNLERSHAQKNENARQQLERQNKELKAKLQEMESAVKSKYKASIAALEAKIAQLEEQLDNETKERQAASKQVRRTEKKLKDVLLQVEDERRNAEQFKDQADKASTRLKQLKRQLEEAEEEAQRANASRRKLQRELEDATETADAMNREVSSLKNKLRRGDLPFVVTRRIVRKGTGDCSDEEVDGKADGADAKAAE
Vav1 DH–PH domain (aa 195–508), His-tagged, sequence (P15498 195-508): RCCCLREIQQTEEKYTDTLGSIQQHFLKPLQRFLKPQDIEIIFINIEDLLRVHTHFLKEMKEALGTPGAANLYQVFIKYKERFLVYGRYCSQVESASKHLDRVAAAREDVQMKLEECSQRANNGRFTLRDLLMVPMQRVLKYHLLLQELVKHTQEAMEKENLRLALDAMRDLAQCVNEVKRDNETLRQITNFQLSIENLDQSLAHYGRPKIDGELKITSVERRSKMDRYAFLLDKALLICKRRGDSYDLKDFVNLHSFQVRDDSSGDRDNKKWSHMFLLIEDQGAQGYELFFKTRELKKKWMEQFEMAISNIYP

Trio, Q0KL02 1-3102 (natural protein)
percent of the GEF of the lysate found in the MIIA IP [1]: 10.7%
percent of the GEF of the lysate found in the MIIB IP [2]: 8.7%

Dbl (natural protein)
percent of the GEF of the lysate found in the MIIB IP [2]: 1.3%

Tiam1 (natural protein)
percent of the GEF of the lysate found in the MIIB IP [3]: 1.6%

kalirin, P97924 1-2959 (natural protein)
percent of the GEF of the lysate found in the MIIB IP [3]: 5.6%

FGD1 (natural protein)
percent of the GEF of the lysate found in the MIIB IP [3]: 8.1%

LARG (natural protein)
percent of the GEF of the lysate found in the MIIB IP [3]: 1%

skeletal muscle myosin II (from UniProt Q28641 1-1938; P02602 1-192; P02608 1-170) (complex)
fold of association with F-actin over without F-actin [4]: 2 fold and 4 fold
Kd [5]: 0.29 µM
Kd [6]: 0.39 µM
Kd [7]: 0.26 µM
